Laboratory results as given in PMC4161475.

Molecular target: G-actin (rabbit skeletal muscle actin, monomeric) (rabbit) (UniProt P68135)
Experiment: ELISA; solid-phase assay: wells coated with 5 µM G-actin in PBS, 5 µM protein added, detected with anti-EhCoactosin antibody; in the presence of Ca2+ (2 mM) or EGTA (5 mM)

Substance: EhCoactosin with the C-terminal 14 residues deleted (domain or fragment)
- percent decrease in binding against WT: 33%
